Measured values from the supplement of paper PMC9170038.

Test system: MS2 coat protein
Assay: apparent KD of MS2 coat protein; designed switch direction (-1 OFF switch, 1 ON switch): -1; higher = weaker reporter binding
Summary of the method: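 Designed RNA switches sharing common flanks were transcribed on Illumina chips by stalled E. coli RNA polymerase. They were titrated with SNAP-549-labelled MS2 coat protein, from 0.7 or 1.5 nM doubling to 3 µM, in Tris-HCl pH 7.5 buffer with KCl, MgCl2, BSA, DTT, tRNA and Tween-20. Titrations ran without input, with 200 uM small-molecule ligand, or with an oligonucleotide input. The apparent KD of each design is the median over its clusters, after curve-fitting of normalised cluster fluorescence.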

[1] = input ligand: microRNA oligo, concentration not stated
[2] = Eterna round: R95, input ligand: microRNA oligo, concentration not stated
[3] = Eterna round: R95, input ligand: FMN 200 uM
[4] = Eterna round: R95, input ligand: none

| Sequence | apparent KD of MS2 coat protein (input ligand: FMN 200 uM) | apparent KD of MS2 coat protein [1] | apparent KD of MS2 coat protein (input ligand: none) | apparent KD of MS2 coat protein [2] | apparent KD of MS2 coat protein [3] | apparent KD of MS2 coat protein [4] |
| --- | --- | --- | --- | --- | --- | --- |
| AAUGAUUGACGAGGAUAUUGUGGUAGAUCACGACGAGAAGGCGUAUGUCACAUGAGGAUCACCCAUGUGAGCUUUGUGGAUAGA [Ex NG1 #74] (Eterna round: R96, puzzle: Exclusion NG 1) | 27.1 nM | 16.1 nM | 20.7 nM | – | – | – |
| AAUGGCUGAGGAUAUACACUCACGUCUAAAAGGUUCAAAUGACAUGAGGAUCACCCAUGUAGAAGGCAGCCCGA [Regeor] (puzzle: Exclusion 2) | – | – | – | 98.4 nM | – | – |
| AAUGUGUGAGGAUAUUAAUUGCAAGCGAAUAGGCUUGUGAUUGAGAAGGCACAUGAGGAUCACCCAUGUUCCAA [JR_Ex4_Sub083] (Eterna round: R97, puzzle: Exclusion 4) | 557 nM | – | 38.6 nM | – | – | – |
| AAUUAGUCAGGAUAUACAUGAGGAUCACCCAUGUAAACUUUUAGUUUAAUUUGAAUGUGUAGAAGGGACAUUUA [Ex3 #47] (Eterna round: R97, puzzle: Exclusion 3) | 18.9 nM | – | 22.2 nM | – | – | – |
| AAUUAUUGAUGAGGAUAUUGUGGUGAAACACCACAAGAAGGCAUUAUACACAUGAGGAUCACCCAUGUGAGCCUGAUGCUUAUG [Ex NG1 #55] (Eterna round: R96, puzzle: Exclusion NG 1) | – | 12.7 nM | – | – | – | – |
| AAUUAUUUAUGAGGAUAUUGUGGUGAAACACCACAAGAAGGCAUGAUACACAUGAGGAUCACCCAUGUGAGCCUGAUGCAUAUA [Ex NG1 #58] (Eterna round: R96, puzzle: Exclusion NG 1) | – | 13.5 nM | – | – | – | – |
| AAUUUACAUGAGGAUCACCCAUGUGAGGAUAUGAUACUAUGUACUUCGGUACAUAGUAUCAGAAGGCAUGUGAA [Ex1-3: 92] (puzzle: Exclusion 1) | – | – | – | 133 nM | – | – |
| AAUUUACAUGAGGAUCACCCAUGUGAGGAUAUGGUUUCGCUGGCCGUAGCCAGUGGAACCAGAAGGCGCGUGAU [Mat - Exclusion 1 - JL Mod - D28] (Eterna round: R97, puzzle: Exclusion 1) | 195 nM | – | 84.3 nM | – | – | – |
| ACAAAGGGAGUCAGGAUAUCGGACGUAAGUCAAGACGAGAAGGGACAUGAGGAUCACCCAUGUCAGCGGUGAAA [Exclusion 4 S1] (puzzle: Brourd's mod of Exclusion 4) | – | – | – | 18.7 nM | 42.5 nM | 17 nM |
| ACAAAGGUAGGAUAUCGGACUAUGGACAUGAGGAUCACCCAUGUGCGUCCAGUGUCCAACCGAGAAGGACCCAAAA [Beinge] (puzzle: Exclusion 5) | – | – | – | 86.1 nM | 83.2 nM | 91.6 nM |
| ACAAGAAUUUUGCUCGUAAAGUAGAAACGCGAGAGCGAGACAUGAGGAUCACCCAUGUAAAGGCAGUAGGUGGAGAU [JR_SV3TOV2_Sub027] (puzzle: Sensor v3, turn-off variant 2) | – | – | – | 50.9 nM | 49.3 nM | 46.1 nM |
| ACAAGCAUUUAGUAAAUGGACAUGAGGAUCACCCAUGUGAGUCCGAAGAGAUAAGAUAUAUUGUCGGCUCGUCUUAU [AK-miRNA-r3-22] (Eterna round: R97, puzzle: Sensor, turn-off variant 1) | 55.9 nM | – | 94.8 nM | – | – | – |
| ACAAGCUCUUUGCAACUUAGUUUUGUUGCUUCGUAGGUAACAUGAGGAUCACCCAUGUAAGAGUGAUGUCGUCUUAU [JR_SV3TOV2_Sub085] (puzzle: Sensor v3, turn-off variant 2) | – | – | – | 52.7 nM | 65.8 nM | 76.9 nM |
| ACAAGCUUAAUCAGUAAGAACAUGAGGAUCACCCAUGUAAAUGAAAGGACUAUUGGGUUAUUUAAAGCUCGUCUUAU [JR_STOV1_Sub014] (Eterna round: R97, puzzle: Sensor, turn-off variant 1) | 52.1 nM | – | 52.8 nM | – | – | – |
| ACAAGCUUAUUGCUCGGGUACAUGAGGAUCACCCAUGUUUGUGAUUAUAGAGAUUGUGUUGACGUGCGCUGCAGGUU [JR_SV3TOV1_Sub078] (puzzle: Sensor v3, turn-off variant 1) | – | – | – | 37.9 nM | 61.1 nM | 77 nM |
| ACAAGCUUUUAGUUCGUCUUAUACACUCCUAAUAAGAAAACAUGAGGAUCACCCAUGUAAGAAAUAAGAACUCAUGU [Sesor Array 2 - Jieux - Sensor v3, turn-off variant 2] (Eterna round: R96, puzzle: Sensor v3, turn-off variant 2) | 186 nM | 297 nM | 143 nM | – | – | – |

| Sequence | apparent KD of MS2 coat protein (input ligand: FMN 200 uM) | apparent KD of MS2 coat protein [1] | apparent KD of MS2 coat protein (input ligand: none) | apparent KD of MS2 coat protein [2] | apparent KD of MS2 coat protein [3] | apparent KD of MS2 coat protein [4] |
| --- | --- | --- | --- | --- | --- | --- |
| ACAAGCUUUUAGUUCGUCUUAUACACUCCUAAUAAGAAAACAUGAGGAUCACCCAUGUAAGAAAUAAGAACUCAUGU [Sesor Array 2 - Jieux - Sensor v3, turn-off variant 2] (puzzle: Sensor v3, turn-off variant 2) | – | – | – | 396 nM | 151 nM | 209 nM |
| ACAAGCUUUUGCUCGUCUUACAUGAGGAUCACCCAUGUCGGGAACAUGCAUACAUACAACAUAUAAACAGUAACAGA [high energy, high % A (36%)] (Eterna round: R97, puzzle: Sensor, turn-off variant 1) | 20.1 nM | – | 21.2 nM | – | – | – |
| ACAAGCUUUUUGUUCGUCUUAUAAUAAUAAAUAAAGAUAACAUGAGGAUCACCCAUGUAACAAAGACGGACUCAUGU [Sesor Array 18 - Jieux - Sensor v3, turn-off variant 2] (puzzle: Sensor v3, turn-off variant 2) | – | – | – | 279 nM | 18.2 nM | 16.3 nM |
| ACAAGCUUUUUGUUCGUCUUAUAAUAAUAAAUAAAUAUAACAUGAGGAUCACCCAUGUUAAGAAGACAACCUCAUGU [Sesor Array 25 - Jieux - Sensor v3, turn-off variant 2] (puzzle: Sensor v3, turn-off variant 2) | – | – | – | 606 nM | 157 nM | 305 nM |
| ACAAGUUUUUUGUUUUUUAACAUGAGGAUCACCCAUGUAUUUUUAGAGGAUGUGGGAAUAAGAGCUCUUUGUCUUAU [JR_SV3TOV1_Sub097] (puzzle: Sensor v3, turn-off variant 1) | – | – | – | 90.3 nM | 38.6 nM | 41.2 nM |
| ACACAGCGAGGAUAUACAUGAGGAUCACCCAUGUGGCGGCCGUUACGGUAGCGCUAGUGUAGAAGGCGCAUUGG [EX3 #36] (Eterna round: R97, puzzle: Exclusion 3) | 65.8 nM | – | 94.2 nM | – | – | – |
| ACAGACCGUGUUAGGAUAUUAUUUUACUCAAGUAGUGAGAAGGGACAUGAGGAUCACCCAUGUGUGGGAGUUGA [Eternabot (L2) Solution 42] (Eterna round: R97, puzzle: Brourd's mod of Exclusion 4) | 83 nM | – | 87 nM | – | – | – |
| ACAGUACUGCAAGGAUAUCGUUCUAGUUUAUUACGAGAAGGUGCUUUAGUUAUUUCUUUGGGUUGACAUGAGGAUCACCCAUGU [JR_ExcNG1_Sub056] (Eterna round: R96, puzzle: Exclusion NG 1) | 156 nM | 143 nM | 144 nM | – | – | – |
| ACAGUAUGAUCCGCUCAACAUGAGGAUCACCCAUGUGAUGACUAGGAUAUUAGUAGCCCGCGCAUUAAGAAGGAGUUACGAUUG [Eternabot solution 33] (Eterna round: R96, puzzle: Exclusion NG 3) | 20 nM | 13.9 nM | 23.6 nM | – | – | – |
| ACAUGACUGCUAGGAUAUAGAUGACAUGAGGAUCACCCAUGUUAUCCCAUGUUGACGGAAACCGACUAGAAGGAGCAACAUAUG [Ex NG2 #8] (Eterna round: R96, puzzle: Exclusion NG 2) | 64.7 nM | 30.6 nM | 46.5 nM | – | – | – |
| ACAUGAGGAUCACCCAUGUAAACAUGAUGGCUGAUGUAGAGCUAGGAUAUGAGUGACUUUCUAUCUCAGAAGGAGCUUGACUGG [Deportation 44 - Jieux - Exclusion NG 3] (Eterna round: R96, puzzle: Exclusion NG 3) | 30.1 nM | 26.9 nM | 45.2 nM | – | – | – |
| ACAUGAGGAUCACCCAUGUAAUCAUGAUGGCUGAUGUAGAGUCAGGAUAUGUGUGGCUUUCUAUCACAGAAGGGACAAGACUGG [Deportation 36 - Jieux - Exclusion NG 3] (Eterna round: R96, puzzle: Exclusion NG 3) | 42.9 nM | 26.2 nM | 34.9 nM | – | – | – |
| ACAUGAGGAUCACCCAUGUACAGGGUUUAGUUUCAUCGUUUGAAGGAUAUACUCAGUUAGUUGUUGUAGAAGGUCACAUUUUGG [JR_ExcNG3_Sub004] (Eterna round: R96, puzzle: Exclusion NG 3) | 138 nM | 108 nM | 126 nM | – | – | – |
| ACAUGAGGAUCACCCAUGUCAGGCGGGUCCACUCCGGCUGUUGAGGAUAUAGUUCGGUAUCCGCGCUAGAAGGUGAGGGCCGGC [Aenatbe mod 22] (Eterna round: R96, puzzle: Exclusion NG 3) | 16 nM | 15.3 nM | 18.2 nM | – | – | – |
| ACAUGAGGAUCACCCAUGUCAGGCUGGUCCGCUCCGGCUGUUGAGGAUAUAGCACGGUAUCCGCGCUAGAAGGUGAGGGCCGGC [Aenatbe mod 30] (Eterna round: R96, puzzle: Exclusion NG 3) | 21.6 nM | 18 nM | 22.5 nM | – | – | – |
| ACAUGAGGAUCACCCAUGUCCGGCUGGUCCGUCUCGGCUGUCGAGGAUAUAGCUCGGUGUCCGCGCUAGAAGGCGGGAGCUGGC [Aenatbe mod 67] (Eterna round: R96, puzzle: Exclusion NG 3) | 91.5 nM | 49.8 nM | 85.1 nM | – | – | – |
